Assay results published in the supplement of paper PMC5998384.

How the values were obtained:
HeLa Kyoto [1] = test: solubility change mitosis vs G1/S (difference of NP-40 vs SDS log2 ratios) (log2 ratio difference); higher = more soluble in mitosis
HeLa Kyoto [2] = test: solubility in G1/S (NP-40 vs SDS abundance) (log2 ratio); higher = more soluble; settings: cell cycle stage: G1/S
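Throughout, for solubility change mitosis vs G1/S (difference of NP-40 vs SDS log2 ratios): synchronized HeLa Kyoto cells (double thymidine block for G1/S, nocodazole release for mitosis), protein amounts in NP-40 versus SDS lysates quantified by mass spectrometry, three biological replicates.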
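Throughout, for solubility in G1/S (NP-40 vs SDS abundance): HeLa Kyoto cells arrested at G1/S by double thymidine block, proteins quantified by TMT10plex mass spectrometry in mild NP-40 versus SDS extracts, three biological replicates.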

Chain of STK25 (chain, as listed by the source): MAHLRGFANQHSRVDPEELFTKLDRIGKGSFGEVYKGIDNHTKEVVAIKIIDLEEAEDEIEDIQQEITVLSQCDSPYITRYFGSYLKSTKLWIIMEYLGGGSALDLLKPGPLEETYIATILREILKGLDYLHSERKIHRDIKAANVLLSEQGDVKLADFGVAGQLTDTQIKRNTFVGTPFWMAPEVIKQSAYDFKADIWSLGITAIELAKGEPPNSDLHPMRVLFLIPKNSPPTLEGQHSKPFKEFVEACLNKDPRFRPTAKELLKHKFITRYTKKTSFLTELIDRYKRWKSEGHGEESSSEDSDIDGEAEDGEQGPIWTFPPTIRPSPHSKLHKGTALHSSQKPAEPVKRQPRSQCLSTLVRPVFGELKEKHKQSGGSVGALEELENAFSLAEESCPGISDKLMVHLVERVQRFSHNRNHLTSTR

| Substance | solubility change mitosis (log2) (HeLa Kyoto [1]) | solubility in G1/S (log2) (HeLa Kyoto [2]) |
| --- | --- | --- |
| MAEPLLRKTFSRLRGREKLPRKKSDAKERGHPAQRPEPSPPEPEPQAPEGSQAGAEGPSSPEASRSPARGAYLQSLEPSSRRWVLGGAKPAEDTSLGPGVPGTGEPAGEIWYNPIPEEDPRPPAPEPPGPQPGSAESEGLAPQGAAPASPPTKASRTKSPGPARRLSIKMKKLPELRRRLSLRGPRAGRERERAAPAGSVISRYHLDSSVGGPGPAAGPGGTRSPRAGYLSDGDSPERPAGPPSPTSFRPYEVGPAARAPPAALWGRLSLHLYGLGGLRPAPGATPRDLCCLLQVDGEARARTGPLRGGPDFLRLDHTFHLELEAARLLRALVLAWDPGVRRHRPCAQGTVLLPTVFRGCQAQQLAVRLEPQGLLYAKLTLSEQQEAPATAEPRVFGLPLPLLVERERPPGQVPLIIQKCVGQIERRGLRVVGLYRLCGSAAVKKELRDAFERDSAAVCLSEDLYPDINVITGILKDYLRELPTPLITQPLYKVVLEAMARDPPNRVPPTTEGTRGLLSCLPDVERATLTLLLDHLRLVSSFHAYNRMTPQNLAVCFGPVLLPARQAPTRPRARSSGPGLASAVDFKHHIEVLHYLLQSWPDPRLPRQSPDVAPYLRPKRQPPLHLPLADPEVVTRPRGRGGPESPPSNRYAGDWSVCGRDFLPCGRDFLSGPDYDHVTGSDSEDEDEEVGEPRVTGDFEDDFDAPFNPHLNLKDFDALILDLERELSKQINVCL [SYDE1] | 0.106 | 0.269 |
| STK25 | -0.12 | 0.291 |
| ASNSD1 | 0.0506 | -0.0495 |
| MAATDIARQVGEGCRTVPLAGHVGFDSLPDQLVNKSVSQGFCFNILCVGETGLGKSTLMDTLFNTKFEGEPATHTQPGVQLQSNTYDLQESNVRLKLTIVSTVGFGDQINKEDSYKPIVEFIDAQFEAYLQEELKIRRVLHTYHDSRIHVCLYFIAPTGHSLKSLDLVTMKKLDSKVNIIPIIAKADAISKSELTKFKIKITSELVSNGVQIYQFPTDDESVAEINGTMNAHLPFAVIGSTEELKIGNKMMRARQYPWGTVQVENEAHCDFVKLREMLIRVNMEDLREQTHTRHYELYRRCKLEEMGFKDTDPDSKPFSLQETYEAKRNEFLGELQKKEEEMRQMFVQRVKEKEAELKEAEKELHEKFDRLKKLHQDEKKKLEDKKKSLDDEVNAFKQRKTAAELLQSQGSQAGGSQTLKRDKEKKNNPWLCTE [SEPT6] | -0.0909 | 0.186 |
| MSSEESYRAILRYLTNEREPYAPGTEGNVKRKIRKAAACYVVRGGTLYYQRRQRHRKTFAELEVVLQPERRRDLIEAAHLGPGGTHHTRHQTWHYLSKTYWWRGILKQVKDYIKQCSKCQEKLDRSRPISDVSEMLEELGLDLESGEESNESEDDLSNFTSSPTTASKPAKKKPVSKHELVFVDTKGVVKRSSPKHCQAVLKQLNEQRLSNQFCDVTLLIEGEEYKAHKSVLSANSEYFRDLFIEKGAVSSHEAVVDLSGFCKASFLPLLEFAYTSVLSFDFCSMADVAILARHLFMSEVLEICESVHKLMEEKQLTVYKKGEVQTVASTQDLRVQNGGTAPPVASSEGTTTSLPTELGDCEIVLLVNGELPEAEQNGEVGRQPEPQVSSEAESALSSVGCIADSHPEMESVDLITKNNQTELETSNNRENNTVSNIHPKLSKENVISSSPEDSGMGNDISAEDICAEDIPKHRQKVDQPLKDQENLVASTAKTDFGPDDDTYRSRLRQRSVNEGAYIRLHKGMEKKLQKRKAVPKSAVQQVAQKLVQRGKKMKQPKRDAKENTEEASHKCGECGMVFQRRYALIMHKLKHERARDYKCPLCKKQFQYSASLRAHLIRHTRKDAPSSSSSNSTSNEASGTSSEKGRTKREFICSICGRTLPKLYSLRIHMLKHTGVKPHACQVCGKTFIYKHGLKLHQSLHQSQKQFQCELCVKSFVTKRSLQEHMSIHTGESKYLCSVCGKSFHRGSGLSKHFKKHQPKPEVRGYHCTQCEKSFFEARDLRQHMNKHLGVKPFQCQFCDKCYSWKKDWYSHVKSHSVTEPYRCNICGKEFYEKALFRRHVKKATHGKKGRAKQNLERVCEKCGRKFTQLREYRRHMNNHEGVKPFECLTCGVAWADARSLKRHVRTHTGERPYVCPVCSEAYIDARTLRKHMTKFHRDYVPCKIMLEKDTLQFHNQGTQVAHAVSILTAGMQEQESSGPQELETVVVTGETMEALEAVAATEEYPSVSTLSDQSIMQVVNYVLAQQQGQKLSEVAEAIQTVKVEVAHISGGE [ZBTB11] | 0.267 | -0.621 |
| MGTFCSVIKFENLQELKRLCHWGPIIALGVIAICSTMAMIDSVLWYWPLHTTGGSVNFIMLINWTVMILYNYFNAMFVGPGFVPLGWKPEISQDTMYLQYCKVCQAYKAPRSHHCRKCNRCVMKMDHHCPWINNCCGYQNHASFTLFLLLAPLGCIHAAFIFVMTMYTQLYHRLSFGWNTVKIDMSAARRDPLPIVPFGLAAFATTLFALGLALGTTIAVGMLFFIQMKIILRNKTSIESWIEEKAKDRIQYYQLDEVFVFPYDMGSRWRNFKQVFTWSGVPEGDGLEWPVREGCHQYSLTIEQLKQKADKRVRSVRYKVIEDYSGACCPLNKGIKTFFTSPCTEEPRIQLQKGEFILATRGLRYWLYGDKILDDSFIEGVSRIRGWFPRKCVEKCPCDAETDQAPEGEKKNR [ZDHHC6] | -0.272 | -0.0586 |
| MAVTLSLLLGGRVCAAVTRCGFATRGVAGPGPIGREPDPDSDWEPEERELQEVESTLKRQKQAIRFQKIRRQMEAPGAPPRTLTWEAMEQIRYLHEEFPESWSVPRLAEGFDVSTDVIRRVLKSKFLPTLEQKLKQDQKVLKKAGLAHSLQHLRGSGNTSKLLPAGHSVSGSLLMPGHEASSKDPNHSTALKVIESDTHRTNTPRRRKGRNKEIQDLEESFVPVAAPLGHPRELQKYSSDSESPRGTGSGALPSGQKLEELKAEEPDNFSSKVVQRGREFFDSNGNFLYRI [NGRN] | 0.276 | 0.784 |
| MMMVRRGLLAWISRVVVLLVLLCCAISVLYMLACTPKGDEEQLALPRANSPTGKEGYQAVLQEWEEQHRNYVSSLKRQIAQLKEELQERSEQLRNGQYQASDAAGLGLDRSPPEKTQADLLAFLHSQVDKAEVNAGVKLATEYAAVPFDSFTLQKVYQLETGLTRHPEEKPVRKDKRDELVEAIESALETLNSPAENSPNHRPYTASDFIEGIYRTERDKGTLYELTFKGDHKHEFKRLILFRPFGPIMKVKNEKLNMANTLINVIVPLAKRVDKFRQFMQNFREMCIEQDGRVHLTVVYFGKEEINEVKGILENTSKAANFRNFTFIQLNGEFSRGKGLDVGARFWKGSNVLLFFCDVDIYFTSEFLNTCRLNTQPGKKVFYPVLFSQYNPGIIYGHHDAVPPLEQQLVIKKETGFWRDFGFGMTCQYRSDFINIGGFDLDIKGWGGEDVHLYRKYLHSNLIVVRTPVRGLFHLWHEKRCMDELTPEQYKMCMQSKAMNEASHGQLGMLVFRHEIEAHLRKQKQKTSSKKT [CSGALNACT1] | 0.00125 | 0.0522 |
| MAPRKGSSRVAKTNSLRRRKLASFLKDFDREVEIRIKQIESDRQNLLKEVDNLYNIEILRLPKALREMNWLDYFALGGNKQALEEAATADLDITEINKLTAEAIQTPLKSAKTRKVIQVDEMIVEEEEEEENERKNLQTARVKRCPPSKKRTQSIQGKGKGKRSSRANTVTPAVGRLEVSMVKPTPGLTPRFDSRVFKTPGLRTPAAGERIYNISGNGSPLADSKEIFLTVPVGGGESLRLLASDLQRHSIAQLDPEALGNIKKLSNRLAQICSSIRTHK [CDCA8] | 0.0931 | -1.64 |
| MAEHAPRRCCLGWDFSTQQVKVVAVDAELNVFYEESVHFDRDLPEFGTQGGVHVHKDGLTVTSPVLMWVQALDIILEKMKASGFDFSQVLALSGAGQQHGSIYWKAGAQQALTSLSPDLRLHQQLQDCFSISDCPVWMDSSTTAQCRQLEAAVGGAQALSCLTGSRAYERFTGNQIAKIYQQNPEAYSHTERISLVSSFAASLFLGSYSPIDYSDGSGMNLLQIQDKVWSQACLGACAPHLEEKLSPPVPSCSVVGAISSYYVQRYGFPPGCKVVAFTGDNPASLAGMRLEEGDIAVSLGTSDTLFLWLQEPMPALEGHIFCNPVDSQHYMALLCFKNGSLMREKIRNESVSRSWSDFSKALQSTEMGNGGNLGFYFDVMEITPEIIGRHRFNTENHKVAAFPGDVEVRALIEGQFMAKRIHAEGLGYRVMSKTKILATGGASHNREILQVLADVFDAPVYVIDTANSACVGSAYRAFHGLAGGTDVPFSEVVKLAPNPRLAATPSPGASQVYEALLPQYAKLEQRILSQTRGPPE [XYLB] | 0.111 | -0.242 |
| MAGARRLELGEALALGSGWRHACHALLYAPDPGMLFGRIPLRYAILMQMRFDGRLGFPGGFVDTQDRSLEDGLNRELREELGEAAAAFRVERTDYRSSHVGSGPRVVAHFYAKRLTLEELLAVEAGATRAKDHGLEVLGLVRVPLYTLRDGVGGLPTFLENSFIGSAREQLLEALQDLGLLQSGSISGLKIPAHH [NUDT16] | -0.184 | 0.0531 |
| MHARGPHGQLSPALPLASSVLMLLMSTLWLVGAGPGLVLAPELLLDPWQVHRLLTHALGHTALPGLLLSLLLLPTVGWQQECHLGTLRFLHASALLALASGLLAVLLAGLGLSSAAGSCGYMPVHLAMLAGEGHRPRRPRGALPPWLSPWLLLALTPLLSSEPPFLQLLCGLLAGLAYAAGAFRWLEPSERRLQVLQEGVLCRTLAGCWPLRLLATPGSLAELPVTHPAGVRPPIPGPPYVASPDLWSHWEDSALPPPSLRPVQPTWEGSSEAGLDWAGASFSPGTPMWAALDEQMLQEGIQASLLDGPAQEPQSAPWLSKSSVSSLRLQQLERMGFPTEQAVVALAATGRVEGAVSLLVGGQVGTETLVTHGKGGPAHSEGPGPP [RHBDD3] | 0.0168 | -0.0767 |
| MASKKVCIVGSGNWGSAIAKIVGGNAAQLAQFDPRVTMWVFEEDIGGKKLTEIINTQHENVKYLPGHKLPPNVVAVPDVVQAAEDADILIFVVPHQFIGKICDQLKGHLKANATGISLIKGVDEGPNGLKLISEVIGERLGIPMSVLMGANIASEVADEKFCETTIGCKDPAQGQLLKELMQTPNFRITVVQEVDTVEICGALKNVVAVGAGFCDGLGFGDNTKAAVIRLGLMEMIAFAKLFCSGPVSSATFLESCGVADLITTCYGGRNRKVAEAFARTGKSIEQLEKELLNGQKLQGPETARELYSILQHKGLVDKFPLFMAVYKVCYEGQPVGEFIHCLQNHPEHM [GPD1] | 0.00396 | 0.278 |
| MSLALRSELVVDKTKRKKRRELSEEQKQEIKDAFELFDTDKDEAIDYHELKVAMRALGFDVKKADVLKILKDYDREATGKITFEDFNEVVTDWILERDPHEEILKAFKLFDDDDSGKISLRNLRRVARELGENMSDEELRAMIEEFDKDGDGEINQEEFIAIMTGDI [CETN3] | 0.0873 | 0.133 |
| MERKRWECPALPQGWEREEVPRRSGLSAGHRDVFYYSPSGKKFRSKPQLARYLGGSMDLSTFDFRTGKMLMSKMNKSRQRVRYDSSNQVKGKPDLNTALPVRQTASIFKQPVTKITNHPSNKVKSDPQKAVDQPRQLFWEKKLSGLNAFDIAEELVKTMDLPKGLQGVGPGCTDETLLSAIASALHTSTMPITGQLSAAVEKNPGVWLNTTQPLCKAFMVTDEDIRKQEELVQQVRKRLEEALMADMLAHVEELARDGEAPLDKACAEDDDEEDEEEEEEEPDPDPEMEHV [MBD3] | 0.629 | 0.334 |
| KDM5A | 0.00727 | -0.206 |
